# Reference: the DeepSol protein solubility set
# Assay: soluble on expression in E. coli; label from the status in PepcDB or PDB records
row,Sequence,soluble on expression in E. coli
1,PERESVRHKQPKSKEKKNAEKHIPHGIKCFVHAPEKYEWRWMGDEYVHALTPNVLEMVECLKANGIRLHTAGITVGMQKGKDLVPAPALALSTEMDDHSFFDMEFSRDEALSYLARQSVTTMPDLPLGFVLATFRRRPLGFLKNLGTRANNLYPQDWRIRNLETSEDCMEAKD,not soluble
2,MTLDYHQPTTTNTTLPDDIHMKDPEEEEFEEYEDELLEEEEEFDEELEELENSDSASSLVSAGSPHGSSSSNGSHGSSPPLQVQSPSQGSGSSGSPTGQPEKRHICTVCGKGFSYFSILESHKRSHTGEKPYNCHFCQKTFAQKATLQVHERTHTGERPYKCRYCEKTFAQYGTKTVHEKSAHLGIRNYKCPKCDKLLSSPSALYTHKKTHGDKTFRCDFCPKTFALKNYLKLHVKQVHEQNERKHVCVYCNKGFAYAGSLQVHVRTHTGERPYVCKFCPKAFASQGNLQSHERTHTGERPYSCQFCQRTFIQKSQLTAHESTHLTQKHSVNPDSTTADILPVAGSVTDHQMVGNYECTFCNKKYPYASSLYIHMRKHTEKSAYSCDGCGKPYSQKISLNIHQDQCEAFKNRLKTTDSQFSHNCDGCGKSFVQRIALQIHVDSCEPHKNLARLKLSQQQNQNQNSDSESDTEMKICPLPNPPLTLAPTHQQIPPPVNIYAQQPPPNPLGSILGNTSLTPQTLNFGLPSLSSASFSSLNAHAPFTPVELPNSADFGPLTASKPHAVPFHPSEMCLSAFRKVPESSSISGLGSLSTSILSTQLLLQLQHTPDFNYLLNQNLLSSLAGLSGLSATLGPQLQATTPTSANQQPFLMAAPSAVQPLV,not soluble
3,MKEIIARHKAGEHLGICSVCSAHPLVIESALLFDLNTDNKVLIEATSNQVNQFGGYTGMKPADFRDFVYGIAQEVGFPRERLILGGDHLGPNCWQNEPAAAAMEKSVELIKAYVAAGFSKIHLDASMSCADDPTPLDPMVVARRAAVLCKAAEGTANEEQKCHLTYVIGTEVPVPGGEASTIGSVHVTREVDAARTLETHQIAFRESGLEEALSRVIAIVVQPGVEFDHTQIIHYQPQAAQALSAWIKETPMVYEAHSTDYQTRQAYRALVRDHYAILKVGPALTFALREAIFALAQMENELISPEQRSRVLEVIDEVMLNEPGYWKKYYRPTWSQAMVDIHFSLSDRIRYYWPHPRIRQSVEKLIANLNNVTLPLGLISQFMPVQFERLSEGVLTPTPHNLIIDKIQDVLRAYRFGCTPDVA,not soluble
4,MSLSEPILFVDDEQHVLNALQRVFSESGLETVFTRSPIEALELCRSKKFAVIVSDNMMPEMKGIELLTRIKEESPETVKCLLTAHADLDTALQAINSGEVFRFIVKPWRNEELYQAVSEGVARFRIWDALRQHDEGVLHSLAETIELKDHYTRGHCNRVADHALRICELLKLPSTTSREIRYGSWLHDCGKIGVPETILNSTCMLSEQEMIVVRKHPEWGANVAQQANLSPTLINIIRHHHERFDGTGYPFGLKGVSIPLEARIVAVADVFDALTTDRPYKPAMSFAKAHKLMGDMRGNHLEGRLVDMFFQTLDTEKTGSEGHHHHHH,not soluble
5,VSMDELDPHVARALTLAARFQSALDGTLNQMNNGSFRATDEAETVEVTINGHQWLTGLRIEDGLLKKLGAEAVAQRVNEALHNAQAAASAYNDAAGEQLTAALSAMSRAMNEGMA,soluble
6,MSLTAYKRVLLKLSGESLMGAQQYGIDPNRLADYASDIKEACAMGVQIGIVIGGGNIFRGVSGAAKGFDRVKGDQMGMLATVINSLALSSALEGVGVKTKVLTAVRMEPIGEFYNKWHAIELLEQGYVTIFSCGTGNPFFTTDTGSSLRGIEIEADAMLKGTRVDGIYTADPEKDPSATKFDRITYDEIYARGLKVMDLTATAMCMENNLPIVVFDMDTPGNLLKVLRGEKIGTYVSNTSAEGHHHHHH,soluble
7,MAASFVAVQGNADHGVKLKSGLTSAHRLQRRLSSDLRPLAAADLTGDSLPSEERRRTSSSTPDESLRQVMYLNCWAQG,soluble
8,MIDVMQIQEILPHRYPFLLVDKITELKVKEVVLGYKNISISDHVFMGHFPGHPIYPGVLILEGMAQTGGVLAFESMEDKVDPKSKVVYFTGIDGAKFRNPVRPGDRLDYEMSVVKNRGNMWIFKGQAFVDGNLVAEAELKAMIVDK,soluble
9,MTDIAKLEPTAVWEHFQTLCDIPRPSKHEEQVRDYMKGWAELRGLETVVDKVGNLIIRKPATPGYEDRAGVVLQGHLDMVCQANSGTEHDFFKDPIRPVLKDGWLVAENTTLGADNGIGVALGMAVLSGDDVAHGPVEVLLTLDEEAGMGGALGLETGLLRGQYLINIDTEEWGEFYMGCAGGVDVNVTREYAVEAVPAGFQTASLTIKGLKGGHSGADIHLGRGNANKILIRLLRELEAETELRLSSLQGGTARNALSREAFAVVAYPTADAAKVAAKLDAFQALMRFELAGVDEGVSVLSEAAPAAGVLARADQDVILAALHAAPHGVKRMSQRVEGVVETSNNLGVVSVADGKVFANLMVRSLLDSGTWMLAREAESLFKLAAFKVEMEGGYPGWAPNPQSKLLALFKDVYRREFGAEAEVQVIHAGLECGILGSKYPNLDMVSFGPNIRGAHAPGERVEVESVGKAWQLLQAVLKAIPARLEHHHHHH,soluble
10,MESALQKAAGEGMDEFIQVFTDKYKEIIGGELTADTMPLLTGEQHSLLAYQIFRDEIMFGGFCQLIQNGYGGYIFDNPFAKVMRLWGAEEFSKLVYKAKKIYDANRKDLEKERTDDEFMAMYEQYEAFDDLEEAYLDMEEQVTTLVASYVDNHLELFAKIIK,not soluble
11,MGSDKIHHHHHHMLPLEGLTVIAVEQAVAAPYCSSRLADAGAHVIKIERPEGDFARGYDAAAKGQSSYFVWLNRGKESAVVDLATKEGRAELEKLIASADVLLQNLKPGSMDKLGFARERLRKDYPKLIICTISGYGDEGPYAHRKAYDLLIQAESGLASITGGPESASRVGMSIVDVATGATAHAAILEALIGRGRTGQGADIRISMFDVMADWLTVPLLNAEAGNPPKRLGLAHPSIAPYGVFTSKDGKDILISIQSEREWKKLCSDVLRQPDLPNDPRLCNGVERVKNRAYTDKIVADIFGSLTRDDLLEHLAAADIAFAEVNAMEDLSHHPHLRRIEVDTPNGKVSYPAPAAIFVGDERRYGAVPGIGDKRK,not soluble
12,DPDQFRAIIESPEGAGHVGYQYRRNTGSTMRMVSDVLDERVSLWDFHCDPSGNVIQPGPNVDSRQYLQAAIDYVSSNGGGTITIPAGYTWYLGSYGVGGIAGHSGIIQLRSNVNLNIEGRIHLSPFFDLKPFQVFVGFDNGDPASSGNLENCHIYGHGVVDFGGYEFGASSQLRNGVAFGRSYNCSVTGITFQNGDVTWAITLGWNGYGSNCYVRKCRFINLVNSSVNADHSTVYVNCPYSGVESCYFSMSSSFARNIACSVELHQHDTFYRGSTVNGYCRGAYVVMHAAEAAGAGSYAYNMQVENNIAVIYGQFVILGSDVTATVSGHLNDVIVSGNIVSIGERAAFSAPFGAFIDIGPDNSGASNVQDIQRVLVTGNSFYAPANITDSAAITLRANLNGCTFIANNFDCRYMVYNAPGTTSPVVQNLVWDKSNVIGGTHANQRAGQNLFDMQFASVVNSTIEVQLSCEDLSMFSCILFPASCQLSYSKITVDSAWTKSMSNTAVFEGNQQAGANVYVSYPATVNLTSYNTQGAVPFFSTDTNYAWVTSAYSLSINENLDFSPPATYTNKANGQLVGVGYNEIGGVRSVSVRLMLQRQV,soluble
13,MGHHHHHHSHMVVLRAGKKTFLPALCRAFACRGCQLAPERGAERRDTAPSGVSRFCPPRKSCHDWIGPPDKYSNLRPVHFYIPENESPLEQKLRKLRQETQEWNQQFWANQNLTFSKEKEEFIHSRLKTKGLGLRTESGQKATLNAEEMADFYKEFLSKNFQKHMYYNRDWYKRNFAITFFMGKVALERIWNKLKQKQKKRSN,not soluble
14,MYQETKQFYHLWLLAVQERDEAREHLKQSLVELSRLQECFNTILLSEDQQIPHYSYSETTDETPDHQKLYSYNNFSNESPSRFSSASSIDLVSNSTVYSSPETYDSDCYSLRTLQMGFAFEEKKDFETLVLENIGLGRMLPENGKFQQAIIEAGSLVDSLFITGPIPKWRNPPVQMLSQRPLLSHSIGKWNYGGQGIINRSFSGKMPRLSLMP,soluble
